Target: the molecule itself
Assay: crystal structure; F3ab (183-283), space group P2(1)2(1)2(1), three copies in the asymmetric unit; crystals from 100 mM Hepes, pH 7.0, 10% (w/v) PEG 6000

B1: IDOL F3ab subdomain (residues 183-283) (domain or fragment, human, UniProt Q8WY64 183-283, looked up)
chain: ENYGIEWHSVRDSEGQKLLIGVGPEGISICKDDFSPINRIAYPVVQMATQSGKNVYLTVTKESGNSIVLLFKMISTRAASGLYRAITETHAFYRCDTVTSA
notes: IDOL (MYLIP), human, F3ab subdomain, residues 183-283; E. coli codon-optimised gene in pET28(a); The construct holds an incomplete F3c' (279-283 of 279-300); also called FERM F3ab; third lobe of the FERM domain; not shown: His6, N-terminal, cleaved
binding result: binds

Source: article PMC7521653, “Structural analysis of the LDL receptor–interacting FERM domain in the E3 ubiquitin ligase IDOL reveals an obscured substrate-binding site” (The Journal of Biological Chemistry, 2020)
